The results in this text go back to the supplement of paper PMC10201428.

For data set [1], the system named is VchCAST RNA-guided transposition machinery (E. coli BL21(DE3) host, lacZ target). In words: relative integration efficiency (T-RL orientation) vs wild-type transposon end (log2 (normalized fold change)); transposon end mutated: left end; higher = more efficient transposition. A digest of the protocol: (§1)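 A T7-driven effector plasmid encoding a CRISPR array, tniQ-cas8-cas7-cas6 and tnsA-tnsB-tnsC was co-transformed into E. coli BL21(DE3) together with a pUC57 mini-transposon donor holding barcoded pools of 1549 left-end or 1849 right-end variants. Transformants were plated with 0.1 mM IPTG at 37°C for 18 h. Illumina sequencing of PCR-amplified input plasmids and genomic integration junctions gave barcode abundances, and relative integration efficiency is their output/input fold change, normalised to reference barcodes and log-transformed.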

The test system is the same in data set [2]. Description: relative integration efficiency (T-LR orientation) vs wild-type transposon end (log2 (normalized fold change)); transposon end mutated: left end; higher = more efficient transposition. A digest of the protocol: as §1

± gives the standard deviation of the averaged measurements.

For “AATGTTGTTGATGCAACCATAAAGTGATATTTAGACGTCCTTAACTCTGGCAGGGAGTTCAAGGGACCAACCATATATTGATATCTCACAAAACAACCATAAGTTGATATTTTTGTGAATCGAGTATTTCAGCAAAACTACTGCAGTAAGAA”, the “relative integration efficiency (log2)” value in data set [1] is -2.69 ± 1.2; in data set [2], -3.47 ± 2.7.
As to “AATGTTGTTGATGCAACCATAAAGTGATATTTAGCCGCTTCCGGGGCTGCCCTCTAAGCGCGAGCGCCAACCATATATTGATATCTCACAAAACAACCATAAGTTGATATTTTTGTGAATCGAGTATTTCAGCAAAACTACTGCAGTAAGAA”, the “relative integration efficiency (log2)” value in data set [1] was -3.92 ± 1.2; in data set [2], -0.565 ± 0.97.
With “AATGTTGTTGATGCAACCATAAAGTGATATTTAGGCAGTGAGCGCAACGCAATTCTTAACCACAAAACAACCATATATTGATATCTCACAAAACAACCATAAGTTGATATTTTTGTGAATCGAGTATTTCAGCAAAACTACTGCAGTAAGAA”, the results for the “relative integration efficiency (log2)” value in data set [1] and in data set [2] were -4.22 ± 1.2 and -3.58 ± 0.71, respectively.
Turning to “AATGTTGTTGATGCAACCATAAAGTGATATTTATAATTATTTATAATCAGCAACTTAACCACAAAACAACCATATATTGATATCTCACAAAACAACCATAAGTTGATATTTTTGTGAATCGAGTATTTCAGCAAAACTACTGCAGTAAGAAA”, the “relative integration efficiency (log2)” value in data set [1] was -0.877 ± 0.61; in data set [2] it was -0.645 ± 0.95.
In the case of “AATGTTGTTGATGCAACCATAAAGTGATATTTATACCGTTCGTATAATGTATGCTATACCAAGTTATCAACCATATATTGATATCTCACAAAACAACCATAAGTTGATATTTTTGTGAATCGAGTATTTCAGCAAAACTACTGCAGTAAGAA”, the entries for the “relative integration efficiency (log2)” value in data set [1] and in data set [2] were -4.32 ± 1.2 and -3.21 ± 0.88, respectively.
On to “AATGTTGTTGATGCAACCATAAAGTGATATTTATTGTGAGCGGATAACAATTGTGAGCGGATAACAACAACCATATATTGATATCTCACAAAACAACCATAAGTTGATATTTTTGTGAATCGAGTATTTCAGCAAAACTACTGCAGTAAGAA”, for which the “relative integration efficiency (log2)” value in data set [1] was -6.71 ± 0.35; in data set [2] it was -6.162 ± 0.037.
Regarding “AATGTTGTTGATGCAACCATAAAGTGATATTTATTTATGGCTAGCTCAGTCCTAGGTACAATGCTAGCAACCATATATTGATATCTCACAAAACAACCATAAGTTGATATTTTTGTGAATCGAGTATTTCAGCAAAACTACTGCAGTAAGAA”, the figures for the “relative integration efficiency (log2)” value in data set [1] and in data set [2] were -4.66 ± 0.6 and -2.71 ± 0.58, respectively.
Turning to “AATGTTGTTGATGCAACCATAAAGTGATATTTCCGCCGGCGGGCGCCGACTACCAGGCCAACACCCCACCAACGCGCGGTCGCGAGACACCCCACCAACGCCTGGTCGCGGGGGTGTCCGATCTGATTTCAGCAAAACTACTGCAGTAAGAA”, the “relative integration efficiency (log2)” value was -6.65 ± 1.1 in data set [1] and -5 ± 1.2 in data set [2].
Consider “AATGTTGTTGATGCAACCATAAAGTGATATTTGCTAGCACTATACCTAGGACTGAGCTAGCCGTCAACAACCATATATTGATATCTCACAAAACAACCATAAGTTGATATTTTTGTGAATCGAGTATTTCAGCAAAACTACTGCAGTAAGAA”, for which the “relative integration efficiency (log2)” value was -5.87 ± 1 in data set [1] and less than -10 in data set [2].
Take “AATGTTGTTGATGCAACCATAAAGTGATATTTGCTAGCATTGTACCTAGGACTGAGCTAGCCATAAACAACCATATATTGATATCTCACAAAACAACCATAAGTTGATATTTTTGTGAATCGAGTATTTCAGCAAAACTACTGCAGTAAGAA”: the “relative integration efficiency (log2)” value is -3.5 ± 0.79 in data set [1] and -4.41 ± 1.3 in data set [2].
“AATGTTGTTGATGCAACCATAAAGTGATCGGGCATAATTATTTATAATCAGCAACTTAACCACAAAACAACCATATATTGATCGAGAACAAAACAACCATAAGTTGATCGGGGTGTGAATCGAGTATTTCAGCAAAACTACTGCAGTAAGAA”: the “relative integration efficiency (log2)” value was -3.68 ± 1.3 in data set [1] and -3.33 ± 1.4 in data set [2].
In the same order, the values of “AATGTTGTTGATGCAACCATAAAGTGATCGGGCCGCCGGCGGGCGCCGACTACCAGGCCAACACCCCACCAACGCGCGGTCGCGAGACACCCCACCAACGCCTGGTCGCGGGGGTGTCCGATCTGATTTCAGCAAAACTACTGCAGTAAGAA” are -8.26 ± 1.7 and -7.44 ± 0.81.
As for “AATGTTGTTGATGCAACCATAAAGTGATTAAATATAATTATTTATAATCAGCAACTTAACCACAAAACAACCATATATTGATTAGAGACAAAACAACCATAAGTTGATTAAAATGTGAATCGAGTATTTCAGCAAAACTACTGCAGTAAGAA”, the figures for the “relative integration efficiency (log2)” value in data set [1] and in data set [2] were -2.17 ± 0.87 and -1.1 ± 0.76, respectively.
Turning to “AATGTTGTTGATGCAACCATAAAGTGTATAAATATAATTATTTATAATCAGCAACTTAACCACAAAACAACCATATATTGTATAGAGACAAAACAACCATAAGTTGTATAAAATGTGAATCGAGTATTTCAGCAAAACTACTGCAGTAAGAA”, the “relative integration efficiency (log2)” value was -4.69 ± 1.2 in data set [1] and -3.62 ± 1.7 in data set [2].
Regarding “AATGTTGTTGATGCAACCATAACTGTCGCGGGCCGCCGGCGGGCGCCGACTACCAGGCCAACACCCCACCAACGCGCGGTCGCGAGACACCCCACCAACGCCTGGTCGCGGGGGTGTCCGATCTGATTTCAGCAAAACTACTGCAGTAAGAA”, the “relative integration efficiency (log2)” value in data set [1] and in data set [2] was less than -10 each time.
“AATGTTGTTGATGCAACCATAAGTTGATATTTTATAATTATTTATAATCAGCAACTTAACCACAAAACAACCATAAAATGATAATTAACAAAAGTTGGTATTCAACTATAAAATGTGAATCGAGTATTTCAGCAAAACTACTGCAGTAAGAA”: the results for the “relative integration efficiency (log2)” value in data set [1] and in data set [2] were -2.57 ± 1.1 and -0.577 ± 0.68, respectively.
In the same order, the values of “AATGTTGTTGATGCAACCATAAGTTGATATTTTATAATTATTTATAATCAGCAACTTAACCACAAAACAACCATAAAGTGATATTTAACAAAAGTTGGTATTCAACTATAAAATGTGAATCGAGTATTTCAGCAAAACTACTGCAGTAAGAA” are -2.4 ± 0.96 and -1.03 ± 1.1.
Consider “AATGTTGTTGATGCAACCATAAGTTGATATTTTATAATTATTTATAATCAGCAACTTAACCACAAAACAACCATAAGTTGATATTTTACAAAAGTTGGTATTCAACTATAAAATGTGAATCGAGTATTTCAGCAAAACTACTGCAGTAAGAA”, for which the entries for the “relative integration efficiency (log2)” value in data set [1] and in data set [2] were -3.19 ± 1.4 and -1.03 ± 2.3, respectively.
Take “AATGTTGTTGATGCAACCATAAGTTGATATTTTATAATTATTTATAATCAGCAACTTAACCACAAAACAACCATATATTGATATCTCACAAAAGTTGGTATTCAACTATAAAATGTGAATCGAGTATTTCAGCAAAACTACTGCAGTAAGAA”: the “relative integration efficiency (log2)” value in data set [1] is -2.64 ± 1.1; in data set [2], -1.32 ± 0.89.
For the sequence “AATGTTGTTGATGCAACCATAAGTTGATATTTTATAATTATTTATAATCAGCAACTTAACCACAAAACACCCATAAATTGATAATTAACAAAAGTTGGTATTCAACTATAAAATGTGAATCGAGTATTTCAGCAAAACTACTGCAGTAAGAA”, the figures for the “relative integration efficiency (log2)” value in data set [1] and in data set [2] were -2.37 ± 1.2 and -0.777 ± 0.9, respectively.
For “AATGTTGTTGATGCAACCATAAGTTGATATTTTATAATTATTTATAATCAGCAACTTAACCACAAAACACCCATAAATTGATATTGCACAAAAGTTGGTATTCAACTATAAAATGTGAATCGAGTATTTCAGCAAAACTACTGCAGTAAGAA”, the “relative integration efficiency (log2)” value in data set [1] was -3.48 ± 1.3; in data set [2] it was -1.01 ± 1.3.
As for “AATGTTGTTGATGCAACCATACCTGTCGCGGGCCGCCGGCGGGCGCCGACTACCAGGCCAACACCCCACCAACGCGCGGTCGCGAGACACCCCACCAACGCCTGGTCGCGGGGGTGTCCGATCTGATTTCAGCAAAACTACTGCAGTAAGAA”, the “relative integration efficiency (log2)” value in data set [1] and in data set [2] was less than -10 throughout.
